Experimental findings from the supplement of paper PMC10126150 are described below.

± gives the standard deviation of the averaged measurements.
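Further: ATP exposure 15 min at 22 °C before imaging.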

The test system of the data set is ATP. Briefly: switch fluorescence ratio, 500 uM ATP over buffer (Cy3 cluster intensity, sum of 5 cycles each) (fold (ratio)); higher = stronger signal-on switching upon ATP binding; sequences stand for … in TCGTCGGCAGCGTCAGATGTGTATAAGAGACAGTTTTTTTTTTTTTTTTTTTTTTTTT…TC. The following applies: aptamer strand: ATP DNA aptamer (quencher-CACCTGGGGGAGTATTGCGGAGGAAGG + anchor), 100 nM annealed; ATP concentration: 500 uM. The method, boiled down:
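Per cluster, summed Cy3 intensity from the target cycles was divided by that from the buffer cycles to give the fluorescence ratio, then averaged per switch-domain sequence. Clusters outside 100-1000 RFU were excluded. The Cy3-labelled switching-strand clusters, on a modified Illumina MiSeq flow-cell, were annealed to 100 nM quencher-labelled ATP aptamer and imaged in selection buffer, then after 15 min with 500 uM ATP at 22 °C, for five cycles with NaOH stripping and re-annealing between them.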
As for TGATGCGGAT, the switch fluorescence ratio is 1.016 ± 0.0013.
For GGTCATGGCG the value was 1.02 ± 0.098.
For AAGTATTTTT the value was 1.018 ± 0.0058; for TTCGTGGGTG, 1.03 ± 0.075; for CGGCTTATGT, 0.9807 ± 0.0029.
As for ATATGTATGC, the switch fluorescence ratio came to 0.97875 ± 3.4e-05.
For GCATTTGGGA the value was 0.99 ± 0.012; for TCAGCAAAGT, 1.08 ± 0.019; for TCGAGAGGTG, 1.1 ± 0.1.
Regarding TGAATTTATT, the switch fluorescence ratio was 1 ± 0.015.
As for CGTTTGGGCT, the figure is 1.023 ± 0.0037.
As for CAATTGGTTT, the figure is 0.997 ± 0.016.
For the sequence CAGGTATGTT, the switch fluorescence ratio turned out to be 1 ± 0.016.
As for GAGTAGGGTA, the figure is 1.01 ± 0.016; as for AGCGGGGGTG, 1.02 ± 0.018; as for GCAAGTAGAG, 1.0067 ± 0.001.
As for TATCCGGGGT, the figure is 1.03 ± 0.025; as for CGGTCAGGGA, 1.01 ± 0.037.
As for GTATGAGGGA, the figure is 0.993 ± 0.018.
Turning to TCGTTTTGTT, the switch fluorescence ratio stood at 0.975 ± 0.051.
As for TAAAAGGGGG, the figure is 0.999 ± 0.034; as for CCTCTTTTTT, 1.1 ± 0.035.
For TTCTACTTTT the value was 1.01 ± 0.053; for GTAAAAGGGG, 0.996 ± 0.042.
For TACAGGGCTC the value was 1.05 ± 0.024; for CCTTTCAGGA, 0.9993 ± 0.0015.
Consider GGAGCATGAG, for which the switch fluorescence ratio amounted to 2.47 ± 0.14.
For TATTTTTGCG the value was 0.97 ± 0.05.
As for GCGGGTGAGG, the figure is 1.02 ± 0.026.
As for TGGGGTGACA, the figure is 1.01 ± 0.054.
Take GCGTGGGGGC: the switch fluorescence ratio turned out to be 1.02 ± 0.019.
For TGGGGGGAGT the value was 1.01 ± 0.024; for AAACAGGGAG, 0.974 ± 0.075.
As for CGTTAGGGGA, the figure is 0.999 ± 0.011; as for GAGTAAGACA, 0.99 ± 0.013; as for CGTGGATGTT, 0.9831 ± 0.0034.
Turning to TTAAAAATTT, the switch fluorescence ratio came to 0.976 ± 0.025.
For TTAATTAGTT the value was 1.01 ± 0.023.
As for GACCAAGGGT, the figure is 0.978 ± 0.012.
As for GTAAGTAGGA, the switch fluorescence ratio was found to be 1 ± 0.037.
For CTCGTTTGAT the value was 1 ± 0.026.
Regarding TCGTAGGAGG, the switch fluorescence ratio was 1.07 ± 0.024.
Regarding AGACAGTTGG, the switch fluorescence ratio stood at 0.99 ± 0.025.
Consider GACTGGGTTG, for which the switch fluorescence ratio amounted to 0.9668 ± 0.0011.
For TTAACATGGG the value was 1 ± 0.033; for TACGCTTATA, 1.19 ± 0.042; for ATGATGAGTT, 0.986 ± 0.01.
As for AAGGGCTTAC, the figure is 1.135 ± 0.0058; as for TTTTGGCGAA, 0.989 ± 0.015.
For GTTCCTTGGG the value was 1.01 ± 0.016; for ACGTGACAGG, 1.22 ± 0.013; for TTTTTAACGA, 0.9688 ± 0.009.
As for TGAGCTTTTT, the switch fluorescence ratio worked out at 0.993 ± 0.03.
Regarding GAGTCGGCGC, the switch fluorescence ratio was 0.983 ± 0.1.
As for TTTATATGTC, the figure is 1.12 ± 0.23; as for GATTAAAGGG, 1.001 ± 0.0085.
For TATTAAGATA, the switch fluorescence ratio is 0.987 ± 0.043.
In the case of AAGCGAGGGC, the switch fluorescence ratio came to 1.06 ± 0.035.
For AGAAGGGATT the value was 1.03 ± 0.015; for GAATAAGCAA, 1.56 ± 0.025; for GATTGCCGGT, 1.01 ± 0.015.
As for TTCGCCAATG, the figure is 1.07 ± 0.03.
As for CATACAAGGG, the switch fluorescence ratio was 1.019 ± 0.0029.
In the case of ATGGCCTTAA, the switch fluorescence ratio was 0.982 ± 0.028.
For TTTCGTAGAG the value was 1 ± 0.011; for TTCATCGTAT, 1.01 ± 0.015.
As for ATGGGGAAGT, the figure is 1.02 ± 0.02.
As for TGATGGCCTG, the figure is 0.986 ± 0.067; as for GAATAGTTTT, 1.01 ± 0.02; as for GGACGGTCTT, 1.01 ± 0.043.
For GACTGGGTG, the switch fluorescence ratio is 1.04 ± 0.014.
ATACGGGTGC: the switch fluorescence ratio turned out to be 1.26 ± 0.043.
For GGAGAGGGTC the value was 1.049 ± 0.0064; for AGGAATAAGC, 1.01 ± 0.012.
For GATATGTTGA, the switch fluorescence ratio was determined as 1 ± 0.023.
As for GGCTGTTAAG, the figure is 0.983 ± 0.0028.
As for TCAGTTCTTC, the figure is 0.989 ± 0.011; as for ATTATAGGGT, 1.03 ± 0.026.
For GGGATGGCCT the value was 0.959 ± 0.011; for CGCATGGGGT, 1.0574 ± 1.7e-05.
For GATTAGGAGT, the switch fluorescence ratio stood at 0.985 ± 0.014.
As to AGTTTTCGTG, the switch fluorescence ratio was 0.99 ± 0.03.
For ATGTGATTTG the value was 0.985 ± 0.035.
Regarding AGGAGGGATA, the switch fluorescence ratio amounted to 1.04 ± 0.015.
As for TACGTTATTT, the figure is 1.16 ± 0.027.
Consider AATTGAAGGG, for which the switch fluorescence ratio was 0.996 ± 0.015.
For GATGTAACAC the value was 1.07 ± 0.013; for ACGGAGACCG, 1.01 ± 0.038; for GAAGCAGATG, 1.16 ± 0.033.
For GAATGTTATT the value was 1.001 ± 0.0065; for TGAACCGCGA, 2.96 ± 0.18.
For TCAAGGGGGT the value was 1.04 ± 0.097; for TTATTAAACG, 1.015 ± 0.0029.
Turning to CGAAGTTTTT, the switch fluorescence ratio was found to be 0.998 ± 0.004.
For TTTTCGATTA the value was 0.987 ± 0.016; for TAGAATTGGT, 0.983 ± 0.016.
As for GGCTGTGGGT, the figure is 0.987 ± 0.052; as for AGGGGGAAAC, 1.01 ± 0.027.
As to TGGGGTAGGA, the switch fluorescence ratio is 0.988 ± 0.029.
As for GAGGTCGGGC, the figure is 0.94 ± 0.039; as for GTCATTCCGC, 1.65 ± 0.065; as for CGTGTGGTAG, 0.992 ± 0.044.
Regarding CAGTGGGGAC, the switch fluorescence ratio amounted to 1.03 ± 0.055.
As for CATGTATGCT, the figure is 1 ± 0.014; as for AGGTAGAATA, 0.989 ± 0.031.
For GTTGATCAAT the value was 1.03 ± 0.031.
As for GGGGGGAATT, the figure is 1.05 ± 0.1; as for CGTTGTAAGG, 1.01 ± 0.027; as for GATGATGGGG, 0.998 ± 0.044.
As for AAAAAGTCGG, the switch fluorescence ratio was 1.04 ± 0.029.
As to GCCTTTTGCG, the switch fluorescence ratio was 1.01 ± 0.018.
For GGCAGGGGGT the value was 1.04 ± 0.088.
For TAATAATCAA the value was 1.02 ± 0.051.
Take CGGGTCTGTT: the switch fluorescence ratio amounted to 0.979 ± 0.047.
For AAATCGGGGG the value was 1.05 ± 0.084.
For TTTCGACCTG, the switch fluorescence ratio was determined as 0.9871 ± 0.0046.
For TTTTTAGGTT the value was 1.04 ± 0.064.
As for TATCGTACAG, the figure is 1.06 ± 0.011; as for GACAACATTT, 0.9967 ± 0.004.
On to GCTCAACGGT, for which the switch fluorescence ratio was 0.9561 ± 0.0041.
